T1: LZTR1-FLAG (human, UniProt Q8N653 1-840)
T1 construct: Expressed in HEK 293T, HeLa or U87 cells; used as cell lysate; also called LZTR1 wild type-FLAG; LZTR1 WT; not shown: FLAG tag at the C-terminus
T1 sequence (looked up): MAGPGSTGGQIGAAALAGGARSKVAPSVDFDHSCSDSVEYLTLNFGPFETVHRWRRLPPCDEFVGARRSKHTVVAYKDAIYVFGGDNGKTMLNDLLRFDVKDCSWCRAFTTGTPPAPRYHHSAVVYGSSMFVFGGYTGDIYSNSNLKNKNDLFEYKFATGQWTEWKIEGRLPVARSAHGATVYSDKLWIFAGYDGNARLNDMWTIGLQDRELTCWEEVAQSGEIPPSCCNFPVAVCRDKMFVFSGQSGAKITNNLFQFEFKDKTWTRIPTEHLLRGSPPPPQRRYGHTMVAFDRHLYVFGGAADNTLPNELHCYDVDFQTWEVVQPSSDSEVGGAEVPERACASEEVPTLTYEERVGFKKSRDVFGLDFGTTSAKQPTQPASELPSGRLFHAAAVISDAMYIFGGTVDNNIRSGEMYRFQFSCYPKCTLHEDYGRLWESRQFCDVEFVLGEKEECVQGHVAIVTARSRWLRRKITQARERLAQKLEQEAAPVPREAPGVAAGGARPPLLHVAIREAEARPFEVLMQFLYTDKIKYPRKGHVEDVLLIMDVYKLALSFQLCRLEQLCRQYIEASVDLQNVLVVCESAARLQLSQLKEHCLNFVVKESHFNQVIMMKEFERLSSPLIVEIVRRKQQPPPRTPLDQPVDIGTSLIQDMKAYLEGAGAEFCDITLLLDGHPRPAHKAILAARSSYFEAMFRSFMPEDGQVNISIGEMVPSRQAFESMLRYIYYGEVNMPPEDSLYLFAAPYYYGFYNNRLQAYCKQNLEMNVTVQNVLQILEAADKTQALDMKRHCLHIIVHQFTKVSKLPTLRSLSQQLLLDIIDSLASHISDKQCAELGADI

T2: LZTR1 R810W-FLAG (human, UniProt Q8N653 1-840)
T2 construct: Stably expressed in U87 cells by lentivirus; also called LZTR1-FLAG-R810W; LZTR1 RW; not shown: FLAG tag
T2 sequence (looked up): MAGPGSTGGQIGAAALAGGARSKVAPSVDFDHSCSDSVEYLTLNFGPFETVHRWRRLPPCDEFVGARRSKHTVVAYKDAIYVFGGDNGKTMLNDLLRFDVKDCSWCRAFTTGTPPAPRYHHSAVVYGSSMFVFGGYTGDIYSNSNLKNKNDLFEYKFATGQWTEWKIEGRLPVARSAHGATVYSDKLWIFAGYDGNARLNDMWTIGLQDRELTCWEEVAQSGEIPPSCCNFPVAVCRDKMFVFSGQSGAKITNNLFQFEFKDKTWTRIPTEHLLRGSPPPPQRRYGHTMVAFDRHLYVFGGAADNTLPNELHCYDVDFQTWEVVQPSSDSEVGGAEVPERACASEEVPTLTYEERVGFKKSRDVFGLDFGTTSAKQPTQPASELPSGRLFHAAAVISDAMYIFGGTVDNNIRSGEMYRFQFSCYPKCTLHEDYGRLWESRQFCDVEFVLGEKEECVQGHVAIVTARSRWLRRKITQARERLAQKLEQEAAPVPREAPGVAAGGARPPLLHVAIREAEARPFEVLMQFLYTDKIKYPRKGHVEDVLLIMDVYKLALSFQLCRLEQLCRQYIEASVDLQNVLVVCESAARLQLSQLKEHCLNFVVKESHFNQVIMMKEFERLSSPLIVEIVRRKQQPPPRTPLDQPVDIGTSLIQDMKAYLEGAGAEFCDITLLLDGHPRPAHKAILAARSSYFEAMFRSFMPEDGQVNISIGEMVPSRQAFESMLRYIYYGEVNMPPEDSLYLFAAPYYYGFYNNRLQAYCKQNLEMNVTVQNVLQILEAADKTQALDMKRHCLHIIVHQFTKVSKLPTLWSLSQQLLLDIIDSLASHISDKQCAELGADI


Tests used:
LZTR1-FLAG = biological target: T1, LZTR1-FLAG; experiment: IP/MS, LZTR1 wild type-FLAG, U87
How it was run: (§1)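 Gel slices were reduced with 5 mM DTT, alkylated with 11 mM IAA and digested overnight at 37° C. with trypsin. Peptides were analysed on an Orbitrap Fusion Tribrid by LC-MS/MS.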

LZTR1 R810W-FLAG = biological target: T2, LZTR1 R810W-FLAG; experiment: IP/MS, LZTR1 R810W-FLAG, U87
How it was run: as §1

binding result (LZTR1-FLAG) | binding result (LZTR1 R810W-FLAG) | Binder
binds | binds | KLHDC10 (other, human, UniProt Q6PID8 1-442, looked up) MSAAQGWDRNRRRGGGAAGAGGGGSGAGGGSGGSGGRGTGQLNRFVQLSGRPHLPGKKKIRWDPVRRRFIQSCPIIRIPNRFLRGHRPPPARSGHRCVADNTNLYVFGGYNPDYDESGGPDNEDYPLFRELWRYHFATGVWHQMGTDGYMPRELASMSLVLHGNNLLVFGGTGIPFGESNGNDVHVCNVKYKRWALLSCRGKKPSRIYGQAMAIINGSLYVFGGTTGYIYSTDLHKLDLNTREWTQLKPNNLSCDLPEERYRHEIAHDGQRIYILGGGTSWTAYSLNKIHAYNLETNAWEEIATKPHEKIGFPAARRCHSCVQIKNDVFICGGYNGEVILGDIWKLNLQTFQWVKLPATMPEPVYFHCAAVTPAGCMYIHGGVVNIHENKRTGSLFKIWLVVPSLLELAWEKLLAAFPNLANLSRTQLLHLGLTQGLIERLK
binds | binds | KLHL11 (other, human, UniProt Q9NVR0 16-708, looked up) ASLQVLEMESMETAAAGSAGLAAEVRGSGTVDFGPGPGISAMEASGGDPGPEAEDFECSSHCSELSWRQNEQRRQGLFCDITLCFGGAGGREFRAHRSVLAAATEYFTPLLSGQFSESRSGRVEMRKWSSEPGPEPDTVEAVIEYMYTGRIRVSTGSVHEVLELADRFLLIRLKEFCGEFLKKKLHLSNCVAIHSLAHMYTLSQLALKAADMIRRNFHKVIQDEEFYTLPFHLIRDWLSDLEITVDSEEVLFETVLKWVQRNAEERERYFEELFKLLRLSQMKPTYLTRHVKPERLVANNEVCVKLVADAVERHALRAENIQSGTCQHPTSHVSLLPRYGQNMDVIMVIGGVSEGGDYLSECVGYFVDEDRWVNLPHIHNHLDGHAVAVTESYVYVAGSMEPGFAKTVERYNPNLNTWEHVCSLMTRKHSFGLTEVKGKLYSIGGHGNFSPGFKDVTVYNPELDKWHNLESAPKILRDVKALAIEDRFVYIAARTPVDRDTEDGLKAVITCYDTETRQWQDVESLPLIDNYCFFQMSVVNSNFYQTASCCPKSYCLENEEAVRKIASQVSDEILESLPPEVLSIEGAAICYYKDDVFIIGGWKNSDDIDKQYRKEAYRYCAERKRWMLLPPMPQPRCRATACHVRIPYRYLHGTQRYPMPQNLMWQKDRIRQMQEIHRHALNMRRVPSSQIEC
binds | binds | KLHL21 (other, human, UniProt Q9UJP4 1-597, looked up) MERPAPLAVLPFSDPAHALSLLRGLSQLRAERKFLDVTLEAAGGRDFPAHRAVLAAASPYFRAMFAGQLRESRAERVRLHGVPPDMLQLLLDFSYTGRVAVSGDNAEPLLRAADLLQFPAVKEACGAFLQQQLDLANCLDMQDFAEAFSCSGLASAAQRFILRHVGELGAEQLERLPLARLLRYLRDDGLCVPKEEAAYQLALRWVRADPPRRAAHWPQLLEAVRLPFVRRFYLLAHVEAEPLVARCPPCLRLLREARDFQAARYDRHDRGPCPRMRPRPSTGLAEILVLVGGCDQDCDELVTVDCYNPQTGQWRYLAEFPDHLGGGYSIVALGNDIYVTGGSDGSRLYDCVWRYNSSVNEWAEVAPMLKAREYHSSSVLDGLLYVVAADSTERYDHTTDSWEALQPMTYPMDNCSTTACRGRLYAIGSLAGKETMVMQCYDPDTDLWSLVDCGQLPPWSFAPKTATLNGLMYFVRDDSAEVDVYNPTRNEWDKIPSMNQVHVGGSLAVLGGKLYVSGGYDNTFELSDVVEAYDPETRAWSVVGRLPEPTFWHGSVSIFRQFMPQTFSGGRGFELDSGSDDMDPGRPRPPRDPDELH

Reference: patent US20250262210A1 (TRUSTEES OF COLUMBIA UNIVERSITY IN THE CITY OF NEW YORK, published 2025)
